Data taken from the supplement of paper PMC9112550, “Optimization of the antimicrobial peptide Bac7 by deep mutational scanning” (BMC Biology, 2022).

System: Escherichia coli TOP10
Assay: shrunken log2 fold change of peptide-encoding DNA abundance (4.5 h post-induction vs induction); higher = less antimicrobial activity (less host growth inhibition)
Conditions: time post-induction: 4.5 h; library: site-saturation at positions 5, 18, 19, 20
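Note: peptides expressed intracellularly from a pBAD plasmid library in pooled LB shake-flask culture, induced with 0.3% L-arabinose, DNA abundance read by NGS, three biological replicates, DESeq2 with apeglm shrinkage.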

Compared with RRIRRRPPRLPRPRPRPNDIPRP, RRIRVRPPRLPRPRPRPVGGPRP is higher in “shrunken log2 fold change” value: -0.349 for the first, 0.306 for the second.

RRIRNRPPRLPRPRPRPQDDPRP and RRIRGRPPRLPRPRPRPVLYPRP are within 0.2 log units of each other in “shrunken log2 fold change” value: 0.00776 for the first, 0.069 for the second.

RRIRQRPPRLPRPRPRPFKSPRP and RRIRHRPPRLPRPRPRPAVMPRP are within 0.2 log units of each other in “shrunken log2 fold change” value: -0.00197 for the first, -0.0305 for the second.

RRIRPRPPRLPRPRPRPLIQPRP and RRIRVRPPRLPRPRPRPMAFPRP are within 0.2 log units of each other in “shrunken log2 fold change” value: -0.0119 for the first, -0.00965 for the second.

Compared with RRIRVRPPRLPRPRPRPNDIPRP, RRIRERPPRLPRPRPRPIATPRP is higher in “shrunken log2 fold change” value: -0.235 for the first, 0.221 for the second.

Going from RRIRFRPPRLPRPRPRPSVNPRP to RRIRGRPPRLPRPRPRPALCPRP, the “shrunken log2 fold change” value rises from -0.388 to 0.925.

RRIRHRPPRLPRPRPRPEGGPRP and RRIRQRPPRLPRPRPRPSMAPRP are within 0.2 log units of each other in “shrunken log2 fold change” value: -0.0289 for the first, -0.135 for the second.

First: RRIRKRPPRLPRPRPRPSGYPRP
Second: RRIRGRPPRLPRPRPRPHPCPRP
The “shrunken log2 fold change” value of the first is lower: -0.0136 for the first, 0.922 for the second.

First: RRIRERPPRLPRPRPRPYAIPRP
Second: RRIRRRPPRLPRPRPRPTKHPRP
The “shrunken log2 fold change” value of the first is lower: -0.52 for the first, 0.124 for the second.

Compared with RRIRARPPRLPRPRPRPSVMPRP, RRIRARPPRLPRPRPRPYCDPRP is lower in “shrunken log2 fold change” value: 0.00738 for the first, -0.425 for the second.

First: RRIRQRPPRLPRPRPRPPSWPRP
Second: RRIRTRPPRLPRPRPRPPLDPRP
The “shrunken log2 fold change” value of the first is higher: 0.581 for the first, 0.148 for the second.

Going from RRIRERPPRLPRPRPRPPMFPRP to RRIRWRPPRLPRPRPRPSNYPRP, the “shrunken log2 fold change” value falls from -0.203 to -0.707.

First: RRIRMRPPRLPRPRPRPTWTPRP
Second: RRIRQRPPRLPRPRPRPSWSPRP
The “shrunken log2 fold change” value of the first is higher: 0.667 for the first, -0.185 for the second.

RRIRIRPPRLPRPRPRPASYPRP and RRIRPRPPRLPRPRPRPILRPRP are within 0.2 log units of each other in “shrunken log2 fold change” value: -0.0337 for the first, -0.0705 for the second.

RRIRPRPPRLPRPRPRPRFYPRP and RRIRERPPRLPRPRPRPNWVPRP are within 0.2 log units of each other in “shrunken log2 fold change” value: 0.0111 for the first, -0.0244 for the second.

First: RRIRYRPPRLPRPRPRPEYCPRP
Second: RRIRQRPPRLPRPRPRPCCFPRP
The “shrunken log2 fold change” value of the first is lower: -0.414 for the first, 0.0639 for the second.

RRIRIRPPRLPRPRPRPVMWPRP and RRIRARPPRLPRPRPRPCRTPRP are within 0.2 log units of each other in “shrunken log2 fold change” value: -0.0605 for the first, 0.0201 for the second.

Going from RRIRYRPPRLPRPRPRPVYYPRP to RRIRPRPPRLPRPRPRPWCKPRP, the “shrunken log2 fold change” value rises from -0.68 to -0.162.

Compared with RRIRARPPRLPRPRPRPQVPPRP, RRIRHRPPRLPRPRPRPCCHPRP is lower in “shrunken log2 fold change” value: 0.117 for the first, -0.707 for the second.

RRIRCRPPRLPRPRPRPLPHPRP and RRIRQRPPRLPRPRPRPPGLPRP are within 0.2 log units of each other in “shrunken log2 fold change” value: 0.102 for the first, 0.127 for the second.

RRIRPRPPRLPRPRPRPDSRPRP and RRIRYRPPRLPRPRPRPMMAPRP are within 0.2 log units of each other in “shrunken log2 fold change” value: 0.0317 for the first, -0.146 for the second.

Going from RRIRLRPPRLPRPRPRPEQAPRP to RRIRQRPPRLPRPRPRPQCAPRP, the “shrunken log2 fold change” value falls from 0.0554 to -0.183.

RRIRRRPPRLPRPRPRPSGIPRP and RRIRGRPPRLPRPRPRPHKYPRP are within 0.2 log units of each other in “shrunken log2 fold change” value: -0.0479 for the first, -0.216 for the second.

First: RRIRIRPPRLPRPRPRPVSCPRP
Second: RRIRVRPPRLPRPRPRPWSSPRP
The “shrunken log2 fold change” value of the first is higher: -0.0157 for the first, -1.19 for the second.

Compared with RRIRSRPPRLPRPRPRPRRCPRP, RRIRMRPPRLPRPRPRPDPDPRP is higher in “shrunken log2 fold change” value: 0.359 for the first, 0.634 for the second.

First: RRIRSRPPRLPRPRPRPQGNPRP
Second: RRIRFRPPRLPRPRPRPGQGPRP
The “shrunken log2 fold change” value of the first is lower: -0.679 for the first, 0.249 for the second.

Going from RRIRQRPPRLPRPRPRPETKPRP to RRIRRRPPRLPRPRPRPRLFPRP, the “shrunken log2 fold change” value rises from 0.0652 to 0.593.

Going from RRIRCRPPRLPRPRPRPRQVPRP to RRIRFRPPRLPRPRPRPWCRPRP, the “shrunken log2 fold change” value falls from 0.184 to -0.172.

First: RRIRLRPPRLPRPRPRPNWCPRP
Second: RRIRARPPRLPRPRPRPMEMPRP
The “shrunken log2 fold change” value of the first is higher: 0.374 for the first, 0.163 for the second.

First: RRIRCRPPRLPRPRPRPNDTPRP
Second: RRIRGRPPRLPRPRPRPGWSPRP
The “shrunken log2 fold change” value of the first is lower: -0.461 for the first, 0.758 for the second.

RRIRVRPPRLPRPRPRPKNRPRP and RRIRVRPPRLPRPRPRPAAVPRP are within 0.2 log units of each other in “shrunken log2 fold change” value: 0.137 for the first, 0.114 for the second.

Going from RRIRTRPPRLPRPRPRPWVRPRP to RRIRPRPPRLPRPRPRPLRGPRP, the “shrunken log2 fold change” value rises from 0.0999 to 0.792.

RRIRNRPPRLPRPRPRPILIPRP and RRIRMRPPRLPRPRPRPYDKPRP are within 0.2 log units of each other in “shrunken log2 fold change” value: -0.37 for the first, -0.351 for the second.

RRIRPRPPRLPRPRPRPICCPRP and RRIRYRPPRLPRPRPRPDTMPRP are within 0.2 log units of each other in “shrunken log2 fold change” value: -0.139 for the first, -0.0156 for the second.

Going from RRIRARPPRLPRPRPRPCFLPRP to RRIRMRPPRLPRPRPRPVLRPRP, the “shrunken log2 fold change” value rises from -0.24 to 0.106.

Going from RRIRLRPPRLPRPRPRPYRGPRP to RRIRKRPPRLPRPRPRPLMNPRP, the “shrunken log2 fold change” value rises from -0.246 to 0.158.

RRIRVRPPRLPRPRPRPEMYPRP and RRIRNRPPRLPRPRPRPTNQPRP are within 0.2 log units of each other in “shrunken log2 fold change” value: -0.19 for the first, -0.281 for the second.

In the case of RRIRFRPPRLPRPRPRPGQQPRP, the “shrunken log2 fold change” value was -0.0159.
